Series [1] has as its target T1, S-acyl fatty acid synthase thioesterase-like enzyme short (long) polypeptide (coolEST49) (Homo sapiens, UniProt Q9NV23).
T1 construct: 6xHis (N); made in house; host or cells: E. coli BL21 (DE3), pET-28a
Put plainly: Discontinuous DTNB thioesterase activity / inhibition assay with palmitoyl CoA. Conditions: 1 mM AEBSF. In kind it is biochemical. The procedure: Activity of both protein peaks was assayed using an optimized discontinuous assay format. Reaction mixture was 100 mM Tris (pH 8.0), 100 nM coolEST49,±0.1 mM palmitoyl CoA in a volume of 100 μL. The mixture was allowed to incubate at room temperature for 3 hours. After incubation, 150 μL of developer mixture (0.42 mM DTNB in 100 mM Tris) was added, and the absorbance at 412 nm was measured using a 96-well plate reader, using samples without palmitoyl CoA as blanks.
Activity of S-acyl fatty acid synthase thioesterase-like enzyme short (long) polypeptide from the anion exchange column was assayed and compared to that of the eluate from the Ni-NTA column step. An attempt was also made at inhibiting S-acyl fatty acid synthase thioesterase-like enzyme short (long) polypeptide with either DEPC (7 mM) or AEBSF (1 mM).

The target in series [2] is T2, S-acyl fatty acid synthase thioesterase-like enzyme short (long) polypeptide (Homo sapiens, UniProt Q9NV23). Nature of the series: Continuous DTNB assay, kinetics and substrate searching. Conditions: Batch 1 from baculovirus.
T2 sequence (Q9NV23 whole entry): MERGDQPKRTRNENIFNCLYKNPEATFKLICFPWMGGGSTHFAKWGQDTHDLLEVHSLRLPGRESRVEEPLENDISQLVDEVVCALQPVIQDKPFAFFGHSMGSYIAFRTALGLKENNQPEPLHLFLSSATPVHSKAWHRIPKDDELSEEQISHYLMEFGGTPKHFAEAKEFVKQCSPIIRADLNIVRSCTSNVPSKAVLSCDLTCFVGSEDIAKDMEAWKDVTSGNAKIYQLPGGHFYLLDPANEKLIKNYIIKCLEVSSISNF
Method: (§1) A continuous assay format was used to get kinetic information on this preparation of S-acyl fatty acid synthase thioesterase-like enzyme short (long) polypeptide, using the same conditions as with the discontinuous assay, except with this format, developer was added to enzyme until a flat signal was achieved, then the reaction was started by the addition of substrate. Along with palmitoyl CoA, the other substrates assayed were acetyl CoA, octanoyl CoA, decanoyl CoA, and lauroyl CoA.
(§2) S-acyl fatty acid synthase thioesterase-like enzyme short (long) polypeptide activity was assayed in the continuous format as described.
Series [3] addresses T2, S-acyl fatty acid synthase thioesterase-like enzyme short (long) polypeptide. Put plainly: Comparison of continuous and discontinuous assay format (pre-incubation with DTNB). In kind it is biochemical. Also on record: His6; made in house; host or cells: Sf9 insect cells, baculovirus. Particulars: DTNB at the concentrations used in the continuous assay format. The procedure: S-acyl fatty acid synthase thioesterase-like enzyme short (long) polypeptide was incubated in the presence or absence of DTNB, and the A412 was monitored until a baseline was achieved. Substrate (palmitoyl CoA) was then added to each incubation and was incubated for an additional 50 minutes. After this period of time, A412 of each sample was compared to determine whether the pre-incubation of enzyme with DTNB inactivates the enzyme. Enzyme without substrate was used as a blank for the discontinuous assay.

Series [4] has as its system CCCCCCCC(=O)SCCNC(=O)CCNC(=O)[C@H](O)C(C)(C)COP(=O)(O)OP(=O)(O)OC[C@H]1O[C@@H](n2cnc3c(N)ncnc32)[C@H](O)[C@@H]1OP(=O)(O)O. Put plainly: purified protein, by the assay type. Particulars: other: Batch 1 from baculovirus, continuous assay.
Method: as §1, §2
Series [5] has as its system CCCCCCCCCC(=O)SCCNC(=O)CCNC(=O)[C@H](O)C(C)(C)COP(=O)(O)OP(=O)(O)OC[C@H]1O[C@@H](n2cnc3c(N)ncnc32)[C@H](O)[C@@H]1OP(=O)(O)O. Nature of the series: purified protein, by the assay type. Conditions: other: Batch 1 from baculovirus, continuous assay.
Method: as §1, §2
Series [6] has as its system CCCCCCCCCCCC(=O)SCCNC(=O)CCNC(=O)[C@H](O)C(C)(C)COP(=O)(O)OP(=O)(O)OC[C@H]1O[C@@H](n2cnc3c(N)ncnc32)[C@H](O)[C@@H]1OP(=O)(O)O. Nature of the series: purified protein, by the assay type. Conditions: other: Batch 1 from baculovirus, continuous assay.
Method: as §1, §2
Series [7] concerns CCCCCCCCCCCCCCCC(=O)SCCNC(=O)CCNC(=O)[C@H](O)C(C)(C)COP(=O)(O)OP(=O)(O)OC[C@H]1O[C@@H](n2cnc3c(N)ncnc32)[C@H](O)[C@@H]1OP(=O)(O)O. Put plainly: purified protein, by the assay type. Conditions: continuous assay.
Method: as §1, §2
The mark [8] stands for this setting: other: Batch 1 from baculovirus.

In general, Km refers to the substrate concentration at which the rate is half of its maximum. Usually kcat stands for the number of substrate molecules converted per active site and unit of time at saturation.

T1 sequence (Q9NV23 whole entry): as above

Regarding `Cl.NCCc1ccc(S(=O)(=O)F)cc1` [AEBSF, 4-(2-Aminoethyl)Benzenesulfonyl Fluoride Hydrochloride], the “Inhibition of S-acyl fatty acid synthase thioesterase-like enzyme short (long) polypeptide activity” value in series [1] was “inhibited”.
Turning to `CC(=O)SCCNC(=O)CCNC(=O)[C@H](O)C(C)(C)COP(=O)(O)OP(=O)(O)OC[C@H]1O[C@@H](n2cnc3c(N)ncnc32)[C@H](O)[C@@H]1OP(=O)(O)O` [Acetyl CoA], the Km result in series [2] is listed as “immeasurable”. The kcat result in series [2] (footnote: 1.0 = 23 mOD/min) is reported as “immeasurable”.
As to `O=C(O)c1cc(SSc2ccc([N+](=O)[O-])c(C(=O)O)c2)ccc1[N+](=O)[O-]` [DTNB, 5,5′-dithiobis(2-nitrobenzoic acid)], the “Inactivation of the enzyme” value in series [3] is recorded as 60%.
In the case of “S-acyl fatty acid synthase thioesterase-like enzyme short (long) polypeptide (Homo sapiens)”, the Km in series [4] was 12,400 μM; in series [5] it was 856.1 µM; in series [6], 76.7 µM; in series [7] (setting [8]), 5.1 µM; in series [7] (other: Batch 2 from baculovirus), 2.4 µM. In addition, the kcat in series [4] turned out to be 0.115 s⁻¹; in series [5], 0.0467 s⁻¹; in series [6], 0.0167 s⁻¹; in series [7] (setting [8]), 0.0167 s⁻¹.
